± gives the standard deviation of the averaged measurements.
Experiment: total protein half-life in vivo (active degradation + dilution); higher = more stable protein
[1] = E. coli NCM3722 delta-clpP delta-lon delta-hslV, growth: N-lim chemostat, doubling time 6 h
[2] = E. coli NCM3722 delta-clpP, growth: N-lim chemostat, doubling time 6 h
[3] = E. coli NCM3722 delta-hslV, growth: N-lim chemostat, doubling time 6 h
[4] = E. coli NCM3722 delta-lon, growth: N-lim chemostat, doubling time 6 h
[5] = E. coli NCM3722 delta-smpB, growth: N-lim chemostat, doubling time 6 h
[6] = wild type E. coli NCM3722, growth: C-lim chemostat, doubling time 3 h
[7] = wild type E. coli NCM3722, growth: C-lim chemostat, doubling time 6 h
[8] = wild type E. coli NCM3722, growth: C-lim chemostat, doubling time 12 h
[9] = wild type E. coli NCM3722, growth: N-lim chemostat, doubling time 6 h
[10] = wild type E. coli NCM3722, growth: N-lim chemostat, doubling time 12 h
[11] = wild type E. coli NCM3722, growth: P-lim chemostat, doubling time 6 h
[12] = wild type E. coli NCM3722, growth: P-lim chemostat, doubling time 12 h

Sequence | total protein half-life in vivo [1] [h] | total protein half-life in vivo [2] [h] | total protein half-life in vivo [3] [h] | total protein half-life in vivo [4] [h] | total protein half-life in vivo [5] [h] | total protein half-life in vivo [6] [h] | total protein half-life in vivo [7] [h] | total protein half-life in vivo [8] [h] | total protein half-life in vivo [9] [h] | total protein half-life in vivo [10] [h] | total protein half-life in vivo [11] [h] | total protein half-life in vivo [12] [h]
MTEQQKLTFTALQQRLDSLMLRDRLRFSRRLHGVKKVKNPDAQQAIFQEMAKEIDQAAGKVLLREAARPEITYPDNLPVSQKKQDILEAIRDHQVVIVAGETGSGKTTQLPKICMELGRGIKGLIGHTQPRRLAARTVANRIAEELKTEPGGCIGYKVRFSDHVSDNTMVKLMTDGILLAEIQQDRLLMQYDTIIIDEAHERSLNIDFLLGYLKELLPRRPDLKIIITSATIDPERFSRHFNNAPIIEVSGRTYPVEVRYRPIVEEADDTERDQLQAIFDAVDELSQESHGDILIFMSGEREIRDTADALNKLNLRHTEILPLYARLSNSEQNRVFQSHSGRRIVLATNVAETSLTVPGIKYVIDPGTARISRYSYRTKVQRLPIEPISQASANQRKGRCGRVSEGICIRLYSEDDFLSRPEFTDPEILRTNLASVILQMTALGLGDIAAFPFVEAPDKRNIQDGVRLLEELGAITTDEQASAYKLTPLGRQLSQLPVDPRLARMVLEAQKHGCVREAMIITSALSIQDPRERPMDKQQASDEKHRRFHDKESDFLAFVNLWNYLGEQQKALSSNAFRRLCRTDYLNYLRVREWQDIYTQLRQVVKELGIPVNSEPAEYREIHIALLTGLLSHIGMKDADKQEYTGARNARFSIFPGSGLFKKPPKWVMVAELVETSRLWGRIAARIDPEWVEPVAQHLIKRTYSEPHWERAQGAVMATEKVTVYGLPIVAARKVNYSQIDPALCRELFIRHALVEGDWQTRHAFFRENLKLRAEVEELEHKSRRRDILVDDETLFEFYDQRISHDVISARHFDSWWKKVSRETPDLLNFEKSMLIKEGAEKISKLDYPNFWHQGNLKLRLSYQFEPGADADGVTVHIPLPLLNQVEESGFEWQIPGLRRELVIALIKSLPKPVRRNFVPAPNYAEAFLGRVKPLELPLLDSLERELRRMTGVTVDREDWHWDQVPDHLKITFRVVDDKNKKLKEGRSLQDLKDALKGKVQETLSAVADDGIEQSGLHIWSFGQLPESYEQKRGNYKVKAWPALVDERDSVAIKLFDNPLEQKQAMWNGLRRLLLLNIPSPIKYLHEKLPNKAKLGLYFNPYGKVLELIDDCISCGVDKLIDANGGPVWTEEGFAALHEKVRAELNDTVVDIAKQVEQILTAVFNINKRLKGRVDMTMALGLSDIKAQMGGLVYRGFVTGNGFKRLGDTLRYLQAIEKRLEKLAVDPHRDRAQMLKVENVQQAWQQWINKLPPARREDEDVKEIRWMIEELRVSYFAQQLGTPYPISDKRILQAMEQISG | 6.34 ± 0.51 | 6.5 ± 1.2 | 5.99 ± 0.13 | 5.89 ± 0.89 | 5.46 ± 0.8 | 3.53 ± 0.13 | 6.34 ± 0.23 | 12.8 ± 1.3 | 5.66 ± 0.1 | 11.2 ± 0.78 | 5.71 ± 0.12 | 11.3 ± 0.18
MTESTSRRPAYARLLDRAVRILAVRDHSEQELRRKLAAPIMGKNGPEEIDATAEDYERVIAWCHEHGYLDDSRFVARFIASRSRKGYGPARIRQELNQKGISREATEKAMRECDIDWCALARDQATRKYGEPLPTVFSEKVKIQRFLLYRGYLMEDIQEIWRNFAD | 5.54 ± 0.24 | 3.94 | – | – | – | – | 4.03 | – | – | 5.32 | 7.34 | 8.52
MTFSLFGDKFTRHSGITLLMEDLNDGLRTPGAIMLGGGNPAQIPEMQDYFQTLLTDMLESGKATDALCNYDGPQGKTELLTLLAGMLREKLGWDIEPQNIALTNGSQSAFFYLFNLFAGRRADGRVKKVLFPLAPEYIGYADAGLEEDLFVSARPNIELLPEGQFKYHVDFEHLHIGEETGMICVSRPTNPTGNVITDEELLKLDALANQHGIPLVIDNAYGVPFPGIIFSEARPLWNPNIVLCMSLSKLGLPGSRCGIIIANEKIITAITNMNGIISLAPGGIGPAMMCEMIKRNDLLRLSETVIKPFYYQRVQETIAIIRRYLPENRCLIHKPEGAIFLWLWFKDLPITTKQLYQRLKARGVLMVPGHNFFPGLDKPWPHTHQCMRMNYVPEPEKIEAGVKILAEEIERAWAESH | 3.05 ± 0.33 | 2.32 ± 0.096 | 2.53 ± 0.12 | 2.72 ± 0.059 | 2.76 ± 0.11 | – | 4.26 ± 0.073 | 7.25 ± 0.17 | 2.46 ± 0.28 | 3.33 ± 0.17 | 4.994 ± 0.0076 | 9.24 ± 0.47
MTGKKRSASSSRWLQEHFSDKYVQQAQKKGLRSRAWFKLDEIQQSDKLFKPGMTVVDLGAAPGGWSQYVVTQIGGKGRIIACDLLPMDPIVGVDFLQGDFRDELVMKALLERVGDSKVQVVMSDMAPNMSGTPAVDIPRAMYLVELALEMCRDVLAPGGSFVVKVFQGEGFDEYLREIRSLFTKVKVRKPDSSRARSREVYIVATGRKP [P0C0R7] | 5.17 ± 0.46 | 3.946 ± 0.035 | 4.42 ± 0.32 | 4.55 ± 0.18 | 4.52 ± 0.28 | 2.81 ± 0.034 | 5.87 ± 0.41 | 11.4 ± 1.5 | 4.45 ± 0.14 | 7.904 ± 0.057 | 5.13 ± 0.14 | 8.89 ± 0.018
MTHDNIDILVVDDDISHCTILQALLRGWGYNVALANSGRQALEQVREQVFDLVLCDVRMAEMDGIATLKEIKALNPAIPVLIMTAYSSVETAVEALKTGALDYLIKPLDFDNLQATLEKALAHTHSIDAETPAVTASQFGMVGKSPAMQHLLSEIALVAPSEATVLIHGDSGTGKELVARAIHASSARSEKPLVTLNCAALNESLLESELFGHEKGAFTGADKRREGRFVEADGGTLFLDEIGDISPMMQVRLLRAIQEREVQRVGSNQIISVDVRLIAATHRDLAAEVNAGRFRQDLYYRLNVVAIEVPSLRQRREDIPLLAGHFLQRFAERNRKAVKGFTPQAMDLLIHYDWPGNIRELENAVERAVVLLTGEYISERELPLAIASTPIPLGQSQDIQPLVEVEKEVILAALEKTGGNKTEAARQLGITRKTLLAKLSR | 5.51 ± 2.1 | 3.79 ± 0.11 | 2.98 ± 0.35 | 4.45 ± 1.4 | 2.79 ± 0.13 | 2.64 ± 0.3 | 3.94 ± 1.3 | 6.74 ± 1.1 | 2.89 | 4.34 ± 0.63 | 3.93 ± 0.27 | 7.36 ± 0.67
MTHDNKLQVEAIKRGTVIDHIPAQIGFKLLSLFKLTETDQRITIGLNLPSGEMGRKDLIKIENTFLSEDQVDQLALYAPQATVNRIDNYEVVGKSRPSLPERIDNVLVCPNSNCISHAEPVSSSFAVRKRANDIALKCKYCEKEFSHNVVLAN [P0A7F3] | 5.57 ± 0.82 | 4.6 ± 0.65 | 5.27 ± 1.8 | 4.92 ± 0.13 | 5.09 ± 0.11 | 3.33 ± 0.51 | 5.19 ± 0.14 | 9.106 ± 0.024 | 4.14 ± 0.12 | 7.28 ± 0.48 | 5.64 ± 0.66 | 12.2 ± 1
MTHKATEILTGKVMQKSVLITGCSSGIGLESALELKRQGFHVLAGCRKPDDVERMNSMGFTGVLIDLDSPESVDRAADEVIALTDNCLYGIFNNAGFGMYGPLSTISRAQMEQQFSANFFGAHQLTMRLLPAMLPHGEGRIVMTSSVMGLISTPGRGAYAASKYALEAWSDALRMELRHSGIKVSLIEPGPIRTRFTDNVNQTQSDKPVENPGIAARFTLGPEAVVDKVRHAFISEKPKMRYPVTLVTWAVMVLKRLLPGRVMDKILQG [P0AFP4] | 6.09 ± 0.25 | 6.01 ± 0.54 | 5.32 ± 1.6 | 6.02 ± 0.67 | 5.568 ± 0.03 | 3.07 ± 0.11 | 6.19 ± 0.11 | 13.6 ± 1.8 | 6.01 ± 0.4 | 11.9 ± 0.34 | 6.027 ± 0.025 | 10.4 ± 1.3
MTHLELVPVPPVAQLAGVSQHYGKTVALNNITLDIPARCMVGLIGPDGVGKSSLLSLISGARVIEQGNVMVLGGDMRDPKHRRDVCPRIAWMPQGLGKNLYHTLSVYENVDFFARLFGHDKAEREVRINELLTSTGLAPFRDRPAGKLSGGMKQKLGLCCALIHDPELLILDEPTTGVDPLSRSQFWDLIDSIRQRQSNMSVLVATAYMEEAERFDWLVAMNAGEVLATGSAEELRQQTQSATLEEAFINLLPQAQRQAHQAVVIPPYQPENAEIAIEARDLTMRFGSFVAVDHVNFRIPRGEIFGFLGSNGCGKSTTMKMLTGLLPASEGEAWLFGQPVDPKDIDTRRRVGYMSQAFSLYNELTVRQNLELHARLFHIPEAEIPARVAEMSERFKLNDVEDILPESLPLGIRQRLSLAVAVIHRPEMLILDEPTSGVDPVARDMFWQLMVDLSRQDKVTIFISTHFMNEAERCDRISLMHAGKVLASGTPQELVEKRGAASLEEAFIAYLQEAAGQSNEAEAPPVVHDTTHAPRQGFSLRRLFSYSRREALELRRDPVRSTLALMGTVILMLIMGYGISMDVENLRFAVLDRDQTVSSQAWTLNLSGSRYFIEQPPLTSYDELDRRMRAGDITVAIEIPPNFGRDIARGTPVELGVWIDGAMPSRAETVKGYVQAMHQSWLQDVASRQSTPASQSGLMNIETRYRYNPDVKSLPAIVPAVIPLLLMMIPSMLSALSVVREKELGSIINLYVTPTTRSEFLLGKQLPYIALGMLNFFLLCGLSVFVFGVPHKGSFLTLTLAALLYIIIATGMGLLISTFMKSQIAAIFGTAIITLIPATQFSGMIDPVASLEGPGRWIGEVYPTSHFLTIARGTFSKALDLTDLWQLFIPLLIAIPLVMGLSILLLKKQEG | 6.26 ± 0.63 | 5.83 ± 0.27 | 5.89 ± 0.12 | 6.1709 ± 0.0027 | 5.63 ± 0.1 | 3.42 ± 0.3 | 5.34 | 13.5 ± 0.33 | 5.19 ± 0.17 | 11.8 ± 0.13 | 6.42 ± 0.41 | 13 ± 1.4
MTIAIVIGTHGWAAEQLLKTAEMLLGEQENVGWIDFVPGENAETLIEKYNAQLAKLDTTKGVLFLVDTWGGSPFNAASRIVVDKEHYEVIAGVNIPMLVETLMARDDDPSFDELVALAVETGREGVKALKAKPVEKAAPAPAAAAPKAAPTPAKPMGPNDYMVIGLARIDDRLIHGQVATRWTKETNVSRIIVVSDEVAADTVRKTLLTQVAPPGVTAHVVDVAKMIRVYNNPKYAGERVMLLFTNPTDVERLVEGGVKITSVNVGGMAFRQGKTQVNNAVSVDEKDIEAFKKLNARGIELEVRKVSTDPKLKMMDLISKIDK | 6.3 ± 0.43 | 6.46 ± 1.2 | – | 6.12 ± 0.73 | 5.94 ± 0.051 | 3.14 ± 0.049 | 6.91 ± 0.14 | 13 ± 0.89 | 5.95 ± 0.48 | 12 ± 0.24 | 6.111 ± 0.044 | 14.3 ± 0.52
MTIKNKMLLGALLLVTSAAWAAPATAGSTNTSGISKYELSSFIADFKHFKPGDTVPEMYRTDEYNIKQWQLRNLPAPDAGTHWTYMGGAYVLISDTDGKIIKAYDGEIFYHR | 5.04 ± 0.4 | 5.973 ± 0.043 | 6.26 ± 0.2 | 5.84 ± 0.39 | 6.59 ± 0.59 | 3.09 ± 0.24 | 5.37 ± 0.16 | 8.3 ± 1.4 | 6.03 ± 0.036 | 11.5 ± 0.32 | 5.446 ± 0.049 | 13.4 ± 2.4
MTIKNVICDIDGVLMHDNVAVPGAAEFLHGIMDKGLPLVLLTNYPSQTGQDLANRFATAGVDVPDSVFYTSAMATADFLRRQEGKKAYVVGEGALIHELYKAGFTITDVNPDFVIVGETRSYNWDMMHKAAYFVANGARFIATNPDTHGRGFYPACGALCAGIEKISGRKPFYVGKPSPWIIRAALNKMQAHSEETVIVGDNLRTDILAGFQAGLETILVLSGVSSLDDIDSMPFRPSWIYPSVAEIDVI [P0AF24] | 6.46 ± 0.48 | 5.48 ± 0.16 | 5.64 ± 0.15 | 5.88 ± 0.64 | 5.58 ± 0.17 | 3.14 ± 0.041 | 5.71 ± 0.07 | 11.6 ± 1.2 | 5.465 ± 0.045 | 9.89 ± 0.17 | 6 ± 0.44 | 10.4 ± 2.1
